In this experiment the target is human corticotropin-releasing factor 2α (CRF2 α receptor) (human), Q13324. Put plainly: cell-based or functional assay.

Starred links: 1 amine or outer side, 2 acyl side, 3 side chain; linkers in the order of their positions; H or OH if unused. Groups on a side chain read outwards from the residue. No end group written: not given here. *: point of attachment. C18 diacid = O=C(O)CCCCCCCCCCCCCCCCC(=O)*; γGlu = O=C(O)[C@H](CCC(=O)[*:2])N[*:1]; AEEA = NCCOCCOCC(=O)O

Sequence of human corticotropin-releasing factor 2α (CRF2 α receptor) (human), Q13324 (Q13324 20-411): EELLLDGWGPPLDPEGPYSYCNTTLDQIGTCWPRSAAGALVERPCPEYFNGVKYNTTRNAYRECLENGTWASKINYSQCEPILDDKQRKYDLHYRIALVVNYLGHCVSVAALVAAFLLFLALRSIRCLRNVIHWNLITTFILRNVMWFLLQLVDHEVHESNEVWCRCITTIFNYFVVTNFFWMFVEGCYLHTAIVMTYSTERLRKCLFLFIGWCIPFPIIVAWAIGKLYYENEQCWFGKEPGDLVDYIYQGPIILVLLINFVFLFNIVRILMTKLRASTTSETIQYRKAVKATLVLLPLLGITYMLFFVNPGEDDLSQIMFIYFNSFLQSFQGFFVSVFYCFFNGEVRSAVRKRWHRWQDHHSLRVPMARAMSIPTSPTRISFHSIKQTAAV

B1: SEQ ID NO: 146 (peptide)
peptide: FTLSLDVPIKLK([AEEA-AEEA-γGlu-C18 diacid])QILLKQERQKKQRQKAKKNKQILERV-NH2
modifications: N-terminus assumed
SMILES: CC[C@H](C)[C@H](NC(=O)[C@H](CCC(N)=O)NC(=O)[C@H](CCCCNC(=O)COCCOCCNC(=O)COCCOCCNC(=O)CC[C@H](NC(=O)CCCCCCCCCCCCCCCCC(=O)O)C(=O)O)NC(=O)[C@H](CC(C)C)NC(=O)[C@H](CCCCN)NC(=O)[C@@H](NC(=O)[C@@H]1CCCN1C(=O)[C@@H](NC(=O)[C@H](CC(=O)O)NC(=O)[C@H](CC(C)C)NC(=O)[C@H](CO)NC(=O)[C@H](CC(C)C)NC(=O)[C@@H](NC(=O)[C@@H](N)Cc1ccccc1)[C@@H](C)O)C(C)C)[C@@H](C)CC)C(=O)N[C@@H](CC(C)C)C(=O)N[C@@H](CC(C)C)C(=O)N[C@@H](CCCCN)C(=O)N[C@@H](CCC(N)=O)C(=O)N[C@@H](CCC(=O)O)C(=O)N[C@@H](CCCNC(=N)N)C(=O)N[C@@H](CCC(N)=O)C(=O)N[C@@H](CCCCN)C(=O)N[C@@H](CCCCN)C(=O)N[C@@H](CCC(N)=O)C(=O)N[C@@H](CCCNC(=N)N)C(=O)N[C@@H](CCC(N)=O)C(=O)N[C@@H](CCCCN)C(=O)N[C@@H](C)C(=O)N[C@@H](CCCCN)C(=O)N[C@@H](CCCCN)C(=O)N[C@@H](CC(N)=O)C(=O)N[C@@H](CCCCN)C(=O)N[C@@H](CCC(N)=O)C(=O)N[C@H](C(=O)N[C@@H](CC(C)C)C(=O)N[C@@H](CCC(=O)O)C(=O)N[C@@H](CCCNC(=N)N)C(=O)N[C@H](C(N)=O)C(C)C)[C@@H](C)CC
As for B1, the EC50 [nM], 0% HSA came out at 0.11 nM and the EC50 [nM], 0.1% HSA was determined as 4.36 nM.

B2: SEQ ID NO: 145 (peptide)
peptide: FTLSLDVPTKIK([AEEA-AEEA-γGlu-C18 diacid])QILLKQERQKKQRQKAKKNKQILERV-NH2
modifications: N-terminus assumed
SMILES: CC[C@H](C)[C@H](NC(=O)[C@H](CCC(N)=O)NC(=O)[C@H](CCCCN)NC(=O)[C@H](CC(N)=O)NC(=O)[C@H](CCCCN)NC(=O)[C@H](CCCCN)NC(=O)[C@H](C)NC(=O)[C@H](CCCCN)NC(=O)[C@H](CCC(N)=O)NC(=O)[C@H](CCCNC(=N)N)NC(=O)[C@H](CCC(N)=O)NC(=O)[C@H](CCCCN)NC(=O)[C@H](CCCCN)NC(=O)[C@H](CCC(N)=O)NC(=O)[C@H](CCCNC(=N)N)NC(=O)[C@H](CCC(=O)O)NC(=O)[C@H](CCC(N)=O)NC(=O)[C@H](CCCCN)NC(=O)[C@H](CC(C)C)NC(=O)[C@H](CC(C)C)NC(=O)[C@@H](NC(=O)[C@H](CCC(N)=O)NC(=O)[C@H](CCCCNC(=O)COCCOCCNC(=O)COCCOCCNC(=O)CC[C@H](NC(=O)CCCCCCCCCCCCCCCCC(=O)O)C(=O)O)NC(=O)[C@@H](NC(=O)[C@H](CCCCN)NC(=O)[C@@H](NC(=O)[C@@H]1CCCN1C(=O)[C@@H](NC(=O)[C@H](CC(=O)O)NC(=O)[C@H](CC(C)C)NC(=O)[C@H](CO)NC(=O)[C@H](CC(C)C)NC(=O)[C@@H](NC(=O)[C@@H](N)Cc1ccccc1)[C@@H](C)O)C(C)C)[C@@H](C)O)[C@@H](C)CC)[C@@H](C)CC)C(=O)N[C@@H](CC(C)C)C(=O)N[C@@H](CCC(=O)O)C(=O)N[C@@H](CCCNC(=N)N)C(=O)N[C@H](C(N)=O)C(C)C
B2 displayed an EC50 [nM], 0% HSA of 1.46 nM and an EC50 [nM], 0.1% HSA of 96.9 nM.

Values taken from patent US12679878B2, “CRF2 receptor agonists and their use in therapy” (SANOFI, priority 2020, dated 2026).
